Laboratory results: publication PMC7210961

Legend:
[1] = molecular target: human Nav1.7 (hNav1.7), wild type (human) (UniProt Q15858)
[2] = molecular target: human Nav1.9 with C-terminal GFP (hNav1.9-GFP), wild type (human) (UniProt Q9UI33)
[3] = molecular target: Nav1.8/1.7 DII s3b-s4 chimaera (reverse chimaera: DII s3b-s4 of Nav1.7 built into Nav1.8) (rat | human)
[4] = molecular target: hNav1.7 E818R (human) (UniProt Q15858)

**Q.** For “HpTx1 (spider peptide toxin; rational nomenclature κ-sparatoxin-Hv1a) (from UniProt P58425 1-33)”, which dose-dependent inhibition of hNav1.7 currents in HEK293T cells (whole-cell patch clamp), IC50 [1] is on record?
**A.** 510 nM

**Q.** And the inhibition of the fast inactivation of hNav1.9 currents in ND7/23 cells, dose-response (whole-cell patch clamp), EC50 [2]?
**A.** 470 nM

**Q.** What about the dose-dependent inhibition of the currents of the reverse chimaeric channel by HpTx1 (whole-cell patch clamp), IC50 [3] of the same substance?
**A.** 3000 nM

**Q.** What about the fold reduction in HpTx1 activity (IC50 of current inhibition) against WT hNav1.7 (whole-cell patch clamp) [4] of the same substance?
**A.** 20 fold
